Numbering of substitutions follows the chain as printed. Where “and” joins values, the source holds several entries; their conditions need not be identical. Equal values may be shown once. Read-outs that look alike come from different tables or passages of the source.
T1: human IL-4Rα on TF-1 cells (human, UniProt P24394 26-825)
T1 sequence (looked up): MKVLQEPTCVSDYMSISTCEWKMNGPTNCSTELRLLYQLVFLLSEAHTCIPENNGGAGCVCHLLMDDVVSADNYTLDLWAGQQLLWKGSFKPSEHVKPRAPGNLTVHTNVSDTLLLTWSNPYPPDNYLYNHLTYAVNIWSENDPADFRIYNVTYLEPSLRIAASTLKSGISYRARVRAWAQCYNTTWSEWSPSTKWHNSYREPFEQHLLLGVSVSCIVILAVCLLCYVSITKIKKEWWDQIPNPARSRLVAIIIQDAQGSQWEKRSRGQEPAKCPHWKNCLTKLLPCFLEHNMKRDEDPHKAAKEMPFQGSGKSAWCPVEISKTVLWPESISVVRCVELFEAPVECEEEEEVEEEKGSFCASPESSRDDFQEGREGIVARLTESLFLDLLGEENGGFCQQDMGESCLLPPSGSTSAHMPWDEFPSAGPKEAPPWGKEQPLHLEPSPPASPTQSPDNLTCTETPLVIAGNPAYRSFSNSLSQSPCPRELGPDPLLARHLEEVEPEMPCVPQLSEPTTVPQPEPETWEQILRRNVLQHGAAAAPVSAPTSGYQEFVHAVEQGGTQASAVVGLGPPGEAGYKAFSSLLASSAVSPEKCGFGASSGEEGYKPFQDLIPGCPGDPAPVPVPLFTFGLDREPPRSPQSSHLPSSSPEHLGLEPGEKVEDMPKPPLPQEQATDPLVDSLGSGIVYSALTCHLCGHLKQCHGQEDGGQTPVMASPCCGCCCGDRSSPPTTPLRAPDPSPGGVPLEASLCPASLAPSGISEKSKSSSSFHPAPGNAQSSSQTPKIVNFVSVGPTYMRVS

T2: cynomolgus IL-4Rα HIS FLAG (cynomolgus)
T2 construct: also called Cyno IL4Rα HIS FLAG; not shown: HIS and FLAG tags and any vector-encoded linker of the cynomolgus HIS FLAG construct
T2 chain: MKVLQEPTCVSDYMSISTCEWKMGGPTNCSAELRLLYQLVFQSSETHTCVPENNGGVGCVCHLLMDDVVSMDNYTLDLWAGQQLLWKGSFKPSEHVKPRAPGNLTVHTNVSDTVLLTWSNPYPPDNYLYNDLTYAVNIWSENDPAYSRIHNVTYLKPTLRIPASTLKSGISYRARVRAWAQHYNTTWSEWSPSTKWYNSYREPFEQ

B1: Antibody 1 IgG (antibody, V domains shown)
VH: QVQLVQSGAEVKKPGASVKVSCKASGYAFTSYYMHWARQAPGQGLEWMGIINPSGGSTSYAQKFQGRVTMTRDTSTSTVYMELSSLRSEDTAVYYCARGKWWLDYWGKGTLVTVSS
VL: QSVLTQPPSVSAAPGQKVTISCSGGSSNIGNSYVSWYQQLPGTAPKLLIYDNNKRPSGIPDRFSGSKSGTSATLAITGLQTGDEADYYCGTWDTSLSANYVFGTGTKLTVL
B2: Antibody 4 IgG (antibody, V domains shown)
VH: B1 VH with D104Y, Y105N
VL: B1 VL with L96S, S97P, A98P, N99Q, Y100P, V101I
B3: Antibody 7 IgG (antibody, V domains shown)
VH: B1 VH with L103W, D104Q
VL: B1 VL with L96S, S97P, A98P, N99Q, Y100P, V101I
B4: Antibody 20 IgG (antibody, V domains shown)
VH: B1 VH with W101Y, L103M, D104Y, Y105D
VL: B1 VL with L96T, S97V, A98W, N99E, Y100W, V101P
B5: Antibody 42 IgG (antibody, V domains shown)
VH: B1 VH with M48V, E89G, W101Y, L103M, D104Y, Y105D
VL: B1 VL with S2A, Q39R, T43A, L96T, S97G, A98W, N99E, Y100W, V101P
B6: Antibody 24 (PGL) IgG (antibody, V domains shown)
VH: B1 VH with A37V, S54R, W101Y, L103M, D104Y, Y105D
VL: B1 VL with A75G, Y88F, L96T, S97V, A98W, N99E, Y100W, V101P
B7: Antibody 9 IgG (antibody, V domains shown)
VH: B1 VH with D104Y, Y105N
VL: B1 VL with L96T, S97T, A98M, N99Y, Y100P, V101L
B8: Antibody 2 IgG (antibody, V domains shown)
VH: B1 VH with D104Y, Y105N
VL: B1 VL with L96Q, S97P, A98P, Y100P, V101L
B9: Antibody 37 IgG (antibody, V domains shown)
VH: B1 VH with S54R, T69A, S88P, W101Y, L103M, D104Y, Y105D
VL: B1 VL with S26G, N28S, I59V, L96P, S97V, A98W, N99E, Y100W, V101P
B10: human IL-4Rα HIS FLAG (in house HEK-EBNA derived) (receptor)
chain: MKVLQEPTCVSDYMSISTCEWKMNGPTNCSTELRLLYQLVFLLSEAHTCIPENNGGAGCVCHLLMDDVVSADNYTLDLWAGQQLLWKGSFKPSEHVKPRAPGNLTVHTNVSDTLLLTWSNPYPPDNYLYNHLTYAVNIWSENDPADFRIYNVTYLEPSLRIAASTLKSGISYRARVRAWAQCYNTTWSEWSPSTKWHNSYREPFNPAFLYKVVGAADYKDDDDKAAHHHHHHHHHH
modifications: biotinylated where used as the labelled partner in the DELFIA assay
notes: also called HuIL-4Rα; Human IL4-Rα/FLAG/HIS tag

Tests used:
[1] = target: T1, human IL-4Rα on TF-1 cells; assay: cell-based or functional assay
[2] = target: T1, human IL-4Rα on TF-1 cells; assay: cell-based or functional assay; remark: listed apart in the source
[3] = target: B10; assay: SPR (BIAcore 2000), IgG captured on Protein G', receptor as analyte, 1:1 Langmuir
Description: (§1) In brief, Protein G′ (Sigma Aldrich, P4689) was covalently coupled to the surface of a CM5 sensor chip using standard amine coupling reagents according to manufacturer's instructions (BIAcore). This Protein G′ surface was used to capture a constant amount of purified anti-IL4R• antibodies or isotype control via the Fc domain. Human or cynomolgus IL-4R• HIS FLAG prepared in HBS-EP buffer (BIAcore AB), at a range of concentrations, between 100 nM and 0.2 nM, were passed over the sensor chip surface. […] The resulting sensorgrams were evaluated using BIA evaluation 4.1 software and fitted to 1:1 Langmuir binding model, to provide the relative binding data. The experiments were performed over the course of at least three separate days to calculate an average monovalent affinity.

[4] = target: T2, cynomolgus IL-4Rα HIS FLAG; assay: as above
Description: as §1

[5] = target: T1, human IL-4Rα on TF-1 cells; assay: cell-based or functional assay; remark: listed apart in the source
[6] = target: B10; assay: SPR (BIAcore 2000), value in parentheses under the mean, taken as a single determination
Description: as §1

[7] = target: T2, cynomolgus IL-4Rα HIS FLAG; assay: as above
Description: as §1

[8] = target: B10; assay: SPR (BIAcore 2000), value in parentheses under the mean, taken as a single determination; single determination, one of three separate days; the mean is 0.255 nM
Description: as §1

[9] = target: T3, antibody tested in the epitope mapping of Example 5; assay: HTRF competition, test protein against biotinylated human IL-4Rα/Fc for cryptate labelled antibody
T3 construct: also called an antibody of the invention
Description: (§2) Antibody was cryptate labelled with Eu³⁺ Cryptate labelling kit according to the manufacturer's instructions (CisBio International Cat No. 62EUSPEA) and IL-4R•/Fc (R&D systems Cat. No. 604-4R-050) was Biotin labelled with EZ Link NHS-Biotin according to the manufacturer's instructions (Perbio Cat No. 20217). […] 1% BSA, 0. 4M potassium fluoride in a total volume of 20 μl in a 384 well microtitre plate (Greiner). To the assay a dilution series (from 1000 nM to 0.017 nM) of test proteins was added and the assay incubated overnight at 4° C. FRET signal was detected using a PerkinElmer EnVision plate reader using a 320 nm excitation filter and 620 nm and 665 nm emission filters. Results were calculated from the 665/620 ratio as a percentage of specific binding (signal with no competitor antigen). Results were analysed with Prism (GraphPad Software) using the sigmoidal dose response model.
Antibody binding of chimeric molecules was tested in an HTRF (Homogeneous Time Resolved Fluorescence) competition assay. Molecules which bound antibody at the same paratope as human IL-4R• inhibited the binding interaction, leading to a reduction in signal. From inhibition curves IC₅₀ values for human IL-4R•, mouse IL-4R• and chimeric molecules were calculated (Table 5). […] Chimeras that gave similar IC₅₀ values to native human IL-4R• still contained the epitope.

[10] = target: T3, antibody tested in the epitope mapping …; assay: as above; remark: listed apart in the source
Description: as §2

[11] = target: T3, antibody tested in the epitope mapping …; assay: as above; remark: listed apart in the source
Description: as §2

| Binder | IC50 (pM), IL-4 induced TF-1 cell proliferation [2] [pM] | IC50 (pM), IL-13 induced TF-1 cell proliferation [2] [pM] | Kd [3] [nM] | koff [3] [s⁻¹] | kon [3] [M⁻¹ s⁻¹] | Kd [4] [nM] | koff [4] [s⁻¹] | kon [4] [M⁻¹ s⁻¹] | also measured |
| --- | --- | --- | --- | --- | --- | --- | --- | --- | --- |
| B1 |  |  |  |  |  |  |  |  | IC50 geomean, IL-4 induced TF-1 cell proliferation [1]: 38 nM; IC50 geomean, IL-13 induced TF-1 cell proliferation [1]: 18 nM |
| B2 | 20.9 | 58.1 |  |  |  |  |  |  |  |
| B3 | 12.3 | 42.7 |  |  |  |  |  |  |  |
| B4 | 31.1 | 66.1 | 1.25 | 0.000873 | 698000 | 27.7 | 0.00452 | 163000 |  |
| B5 | 20.2 | 42.7 |  |  |  |  |  |  |  |
| B6 |  |  |  |  |  |  |  |  | IC50 (pM), IL-4 induced TF-1 cell proliferation [5]: 15.3 pM; IC50 (pM), IL-13 induced TF-1 cell proliferation [5]: 55 pM |
| B7 | 8.88 | 20.4 | 0.422 | 0.000229 | 543000 | 124 | 0.0163 | 131000 |  |
| B8 | 41.7 | 171 | 4.51 | 0.00294 | 651000 | 47.5 | 0.00459 | 96700 |  |
| B9 | 10.4 | 22.1 | 0.255 | 0.000162 | 640000 | 2.97 | 0.000688 | 243000 | Kd [6]: 0.25 nM and 0.203 nM; Kd [7]: 2.59 nM and 2.36 nM and 3.96 nM; Kd [8]: 0.313 nM |
| B10 |  |  |  |  |  |  |  |  | IC50 [9]: 0.673 nM; IC50 [10]: 0.673 nM; IC50 [11]: 0.673 nM |
